# Measured values as given in the Immune Epitope Database (IEDB).
# Experiments:
# HLA-B*15:02 = test: IEDB peptide-MHC binding, purified MHC/competitive/fluorescence; filed as Kd, often an IC50 or EC50 that approximates it; ≥ and ≤ were set here for values at or beyond the usual limits of such assays
# HLA-A*02:03 [1] = test: IEDB peptide-MHC binding, purified MHC/direct/fluorescence; filed as Kd, often an IC50 or EC50 that approximates it; ≥ and ≤ were set here for values at or beyond the usual limits of such assays; conditions: source organism: Ebola virus Yambio0403
# HLA-A*02:16 = test: as above; conditions: source organism: Ebola virus Yambio0403
# HLA-B*08:01 = test: as above
# HLA-C*14:02 = test: as above
# HLA-A*03:01 [2] = test: as above; conditions: source organism: Ebola virus Yambio0403
# HLA-A*68:02 = test: as above; conditions: source organism: Ebola virus Yambio0403
# HLA-A*02:19 = test: as above; conditions: source organism: Ebola virus Yambio0403
# HLA-A*02:12 = test: as above; conditions: source organism: Ebola virus Yambio0403
# HLA-B*57:01 = test: IEDB peptide-MHC binding, purified MHC/competitive/fluorescence; filed as Kd, often an IC50 or EC50 that approximates it; ≥ and ≤ were set here for values at or beyond the usual limits of such assays
# HLA-B*27:05 = test: as above; conditions: source organism: Zaire ebolavirus
# HLA-B*39:01 = test: as above; conditions: source organism: Zaire ebolavirus
# HLA-A*02:01 = test: as above; conditions: source organism: Zaire ebolavirus
# HLA-B*51:01 = test: as above; conditions: source organism: Zaire ebolavirus
# HLA-B*46:01 = test: as above; conditions: source organism: Zaire ebolavirus
# HLA-A*26:01 = test: as above; conditions: source organism: Zaire ebolavirus
# HLA-B*35:01 = test: as above
# HLA-A*69:01 = test: as above; conditions: source organism: Zaire ebolavirus
# HLA-C*03:03 = test: IEDB peptide-MHC binding, purified MHC/direct/fluorescence; filed as Kd, often an IC50 or EC50 that approximates it; ≥ and ≤ were set here for values at or beyond the usual limits of such assays
# HLA-C*15:02 = test: as above; conditions: source organism: Mycobacterium tuberculosis H37Ra
# HLA-C*12:03 = test: as above
# HLA-B*14:02 = test: IEDB peptide-MHC binding, purified MHC/competitive/fluorescence; ≥ and ≤ were set here for values at or beyond the usual limits of such assays; conditions: source organism: Human immunodeficiency virus 1
# HLA-A*02:03 [3] = test: IEDB peptide-MHC binding, purified MHC/competitive/fluorescence; filed as Kd, often an IC50 or EC50 that approximates it; ≥ and ≤ were set here for values at or beyond the usual limits of such assays; conditions: source organism: Human immunodeficiency virus 1
# HLA-B*18:01 = test: as above; conditions: source organism: Human immunodeficiency virus 1
# HLA-A*30:01 = test: as above; conditions: source organism: Human immunodeficiency virus 1
# HLA-B*15:01 = test: as above
# HLA-A*26:02 = test: as above; conditions: source organism: Human immunodeficiency virus 1
# HLA-A*02:06 = test: as above; conditions: source organism: Human immunodeficiency virus 1
# HLA-A*01:01 = test: as above
# HLA-A*11:01 = test: as above; conditions: source organism: Human immunodeficiency virus 1
# HLA-B*15:17 = test: as above; conditions: source organism: Human immunodeficiency virus 1
# HLA-C*07:02 = test: IEDB peptide-MHC binding, purified MHC/direct/fluorescence; filed as Kd, often an IC50 or EC50 that approximates it; ≥ and ≤ were set here for values at or beyond the usual limits of such assays
# HLA-A*24:02 = test: IEDB peptide-MHC binding, purified MHC/competitive/fluorescence; filed as Kd, often an IC50 or EC50 that approximates it; ≥ and ≤ were set here for values at or beyond the usual limits of such assays; conditions: source organism: Entamoeba histolytica HM-1:IMSS
# HLA-B*58:01 = test: as above; conditions: source organism: Escherichia coli O139:H28 str. E24377A
# HLA-A*03:01 [4] = test: as above; conditions: source organism: Escherichia coli O139:H28 str. E24377A
# HLA-C*05:01 = test: IEDB peptide-MHC binding, purified MHC/direct/fluorescence; filed as Kd, often an IC50 or EC50 that approximates it; ≥ and ≤ were set here for values at or beyond the usual limits of such assays; conditions: source organism: Influenza A virus (A/duck/Bavaria/1/1977(H1N1))
# HLA-B*07:02 = test: IEDB peptide-MHC binding, purified MHC/competitive/fluorescence; filed as Kd, often an IC50 or EC50 that approximates it; ≥ and ≤ were set here for values at or beyond the usual limits of such assays; conditions: source organism: Influenza A virus (A/duck/Bavaria/1/1977(H1N1))
# [5] = source organism: Zaire ebolavirus
# [6] = source organism: Entamoeba histolytica HM-1:IMSS
# [7] = source organism: Mycobacterium tuberculosis H37Ra
# [8] = source organism: Human immunodeficiency virus 1
# [9] = source organism: Escherichia coli O139:H28 str. E24377A
# [10] = source organism: Yellow fever virus
sequence,measurement,setting,value
ELYPGDSAH,Kd,HLA-B*15:02; source organism: Clostridium botulinum A str. ATCC 3502,615 nM
FRYEFTAPF,Kd,HLA-A*02:03 [1],≥ 20000 nM
same,Kd,HLA-A*02:16,≥ 20000 nM
same,Kd,HLA-B*08:01; [5],6570 nM
same,Kd,HLA-C*14:02; [5],209 nM
same,Kd,HLA-A*03:01 [2],≥ 20000 nM
same,Kd,HLA-A*68:02,≥ 20000 nM
same,Kd,HLA-A*02:19,≥ 20000 nM
same,Kd,HLA-A*02:12,≥ 20000 nM
same,Kd,HLA-B*57:01; [5],≥ 20000 nM
same,Kd,HLA-B*27:05,724 nM
same,Kd,HLA-B*39:01,0.7 nM
same,Kd,HLA-A*02:01,≥ 20000 nM
same,Kd,HLA-B*51:01,≥ 20000 nM
same,Kd,HLA-B*46:01,≥ 20000 nM
same,Kd,HLA-A*26:01,≥ 20000 nM
same,Kd,HLA-B*35:01; [5],952 nM
same,Kd,HLA-A*69:01,≥ 20000 nM
ILLFPLPSF,Kd,HLA-B*15:02; [6],2060 nM
IMYNYPAML,Kd,HLA-B*08:01; source organism: Mycobacterium tuberculosis,2680 nM
same,Kd,HLA-C*03:03; source organism: Mycobacterium leprae,45 nM
KAAGAAVAL,Kd,HLA-C*15:02,1770 nM
same,Kd,HLA-C*12:03; [7],76 nM
same,Kd,HLA-C*03:03; [7],2 nM
KHYMLKHL,IC50,HLA-B*14:02,≥ 20000 nM
KSLFNTIAVLY,Kd,HLA-A*02:03 [3],566 nM
same,Kd,HLA-B*18:01,260 nM
same,Kd,HLA-A*30:01,1350 nM
same,Kd,HLA-B*57:01; [8],190 nM
same,Kd,HLA-B*15:01; [8],1200 nM
same,Kd,HLA-A*26:02,1110 nM
same,Kd,HLA-A*02:06,206 nM
same,Kd,HLA-A*01:01; [8],2130 nM
same,Kd,HLA-A*11:01,1920 nM
same,Kd,HLA-B*35:01; [8],1010 nM
same,Kd,HLA-B*15:17,21.3 nM
KYNSHHFTF,Kd,HLA-C*14:02; [6],80 nM
same,Kd,HLA-C*07:02; [6],2 nM
same,Kd,HLA-A*24:02,≤ 0.1 nM
LANWCLLNY,Kd,HLA-B*15:01; [9],2380 nM
same,Kd,HLA-B*58:01,104 nM
same,Kd,HLA-A*03:01 [4],≥ 20000 nM
same,Kd,HLA-A*01:01; [9],1670 nM
same,Kd,HLA-B*35:01; [9],4.6 nM
LPFQNIHPI,Kd,HLA-C*05:01,≥ 20000 nM
same,Kd,HLA-C*07:02; source organism: Influenza A virus (A/duck/Bavaria/1/1977(H1N1)),≥ 20000 nM
same,Kd,HLA-B*07:02,104 nM
NLYGWHLPL,Kd,HLA-B*15:02; source organism: Escherichia coli APEC O1,9.5 nM
TQHFGWHAF,Kd,HLA-B*15:02; source organism: Vibrio antiquarius,21.4 nM
VAIDRPAEV,Kd,HLA-C*12:03; [10],≤ 1 nM
same,Kd,HLA-C*03:03; [10],2 nM
